Source: the domain aggregation screens of Martell et al. (2025)

test: soluble fraction after stress (log2 fold change); higher = more stays soluble; pooled small domains, quantitative proteomics; settings: stress: pH 4
Procedure, shortened: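 Aggregation propensity here comes from the fold change in the soluble amount of each small protein domain after acid stress, measured in pooled custom libraries by high-throughput quantitative proteomics. The acid stress was pH 4. On the log2 scale, higher values mean more of the domain stayed soluble.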

Row | Sequence | soluble fraction (log2)
1 | HMPSLSPDETVVVDALRQQNDMQINMISVKTNLPIARLSAILFEMELKGVLKPLAGGVYHLL | -0.0639
2 | HMNVLLGISELSHATGVTPAQLRYWVSQGYIKNYGSNKKNKFSLETVFMVRSIKIFQNQGYTLSASAKRAA | -0.285
3 | HMANKLSEQIYGSILKDIVNGVYAPREFISEAQIAAKYGVSKAPVKEAMHILASEGFLLSYPKRGYMVN | 0.109
4 | HMYLPPYMEVRAVMILDGKPMALMYIEGEGDGLIVSPGYKFDNGKGKVVSITPTKVVVLWAGTKMELG | -1.17
5 | HMENFDNIFDQRLMPSLFIIRNINQAIENNNNNKFLLNSTISMKDKHWIEIHPHHLKLIISGYQT | -0.54
6 | HMTYLIKFDENGRRSDTYVAEEKTQEQVTELLEKGFVLITEEDYQLLVGNVDGKEYIRNADGTYSEYT | -0.894
7 | HMDPYEYQLELEKLINNATELNKKYNYDPLKDKILAADAVKNSLETYVLQNYIVALENEIKQTLNQYQIL | -0.754
8 | HMDRELVALVQKALSQLSEQQRRIVELHVMEGMKYLEIADLLQLSENTVRTHLKRAYKILRENH | -0.921
9 | HMKNNNIIFSEFLKEVENGRVVEVRIQGNNIQGIMSNGKEFTTYSPNYPNLIEKLTETGVSISAAPL | -0.516
10 | HMSSSTFVGRVAVITIGEARQNSPAEARFKDRHGTTHYVMVEPMEDVVFKQGDKVLLVESAGATFKVIEPA | -0.00194
11 | HMITPAGVPPALLPVFDQFTLPDGTLRRGAVAAALRALYGPDAPQSGKRYQMEYDRVMAWHSQYFTSLH | -0.42
12 | HMDTGKLQSLVGSRGVAHTVLRPSGKVMIGDDVYPAVAETGFIPRGTAIVVRREEQGQLYVVEARK | 0.275
13 | HMRVESVGDRIRRLRKSLGLTQVKLAQMLGIKAPSVVQWESDKTNLSGENLLNAAKLFGVTPDYILYGG | 0.233
14 | HMPPFTYHLERAKRKTVGFIVDERGVTVRAPRWVSVSEIEKMLQTKEAWIQKKLTEFHNWQKE | 0.111
15 | HMKQQTRAELLDEFAKAHAERGLYFNRDYEQGEIQALQPDKAREYLQSALEARTERQQASEQDR | 0.266
16 | HMLPADETEARVLNVLGSEPLHVDEIRNQADLPIEKISATLAMMELKGMVRQVGGMNYVAMR | -0.892
17 | HMIQRLNVNTEVLSTYIRNSNTPIEYLRQKLPNIDKFLKGELEPTFNQVYALSKLINIPTGLLLLKEPIS | 0.359
18 | HMGRTITVGIAEDADIKDIAKMLEEKGLISDYRLFVVQELLSAQHDKIKPGIYDLSTDMKAEEMLEILAG | -1.33
19 | HMFAERLKELRKMRRFSQHALAERLGISQQAVGKWETGKSTPDPATLREIADIFEVSVDLLLGR | 0.124
20 | HMKIDNPEYQKIMDMIPYFFQTRNYDEAIEALSYVIEQEPSFSEAYNKRATFYFMMGDFENSMKDIESTLA | -0.75
21 | HMQISDESQLREVVSKILEENEQSVIDYKNGKTRAMGFIIGQVMKATRGKANPQLVNEIVKEMLDE | -0.137
22 | HMFEKIDINFADIHQLKGLPLNSEQINSIIEYRNQNGFIENIYDLKNVNGISIDKVHELKSYIFIIDV | -1.96
23 | HMGDKVTIPNLIDMKLTDAQNQYKPQGFSIVKNGERESDKEAGTILEQDKAAGTEISGKDIRIFVVVSSGS | -0.302
24 | HMIDFIGLEAKLLSTISGEKMGNAEVIVDGNVMNIYVKSLDTSEIKFRENVLIIKQSDDKNYYLVAKP | -1.01
25 | HMVEPIKAPMPGMVLKILVEPGQQIEKGQGVLILEAMKMENVLKSSAAATVKSIKVSEKSAVEKGAILVEL | -0.261

Row | Sequence | soluble fraction (log2)
26 | HMAEWIYGKNVVKQSIEEGMVLKLILQRKEDPLFVLAQEKQIPVEILDRHKMTSLVKSDRHQGVAAQI | -0.645
27 | HMKSVTAPLPGTVTQILVKVGDAVKAGDTVLMLEAMKMENSITAEAAGTVKAIRVEKGAQVQGGDVLIEM | -0.594
28 | HMTPAPHESLTDREMEVLKLLAQGLSNQEIADKLFIGVKTVKYHITNIFSKLGVEDRTQAAIYAHKQGLA | -0.185
29 | HMEVTLEEKLSYVEEYAKVHSHFSFRDLLKKQASKTQIVVTFLAILELMKTGKIQITQEHIFDDIVITAK | -0.649
30 | HMAEKAVELTENEKAIQTILSNGALEIGELKTKLELSGKQWDVALKGLAKHGITQVSKVEGVVTVGL | 0.124
31 | HMNEAMIMIDLKGKSRDEAVKELDELNLKYRFTGNGIVKDQKPKAGEEINSDTVVEVELSEIK | -0.105
32 | HMIVVLKHGVTEQQMRNLIAWFKDQGVDVHVSRGIYQTVLGLVGDTSDIDVDLLRMLDIVDAVKRIT | -0.785
33 | HMDGLAEQLFNILREELESGDYKPGQKLMSESALAQKYGVSRLTVRAAIARLSALDYVETRNGEGSFVKKR | -0.0881
34 | HMNQSEMIGSRLKEERLQQKLTLKQLSEKVGLSIGYLSQVERGYGTLSLSALKKLSSALGLEMSTFFD | 0.121
35 | HMQPAALEAQVIKLVRLHAPIKARQLATILANEFGQHVDRSTVNSLLYQLRAQGKVAQNAAYQWSLT | -0.0984
36 | HMGKGGVAYLLESEFGIELPKDMQREFGPIANDIVDSLGREVSGAELKSMFWKEYIERETPFLLLLVTGQL | -0.762
37 | HMDITKPKISFEPGEMVRVVDGPFNDFSGVVEEVNYEKSKVRVAVLIFGRSTPVELQFNQIEK | -0.523
38 | HMVNLKQVELREHHPWVGHKIKELDISRHTLIVMIRRGDNAIVPNGDTLIKSGDIVFVFSKR | -0.839
39 | HMQTLQTTSLRVSENQLFILDQQALPQEKRWLAADNVALLVDHIHTLRVRGAPLIGLSASLLLALLAGRLT | -0.764
40 | HMVRQKYKSNFITVGDKSLTIHDWAQRLNLSQYALRNRYKEFGKEWVEKAIKTILETGDNTHIYK | 0.0662
41 | HMEHTPYLTEREADVVRLLVSGLDTAQIAQRLGIKTATVTAHKKHIFLKIGVRNTTQLVAWALIR | -0.557
42 | HMTTKGGLVRDTVLNEFRDSEFTRREVELVLNGVASERTIRGALSEMVERGELTQVNFGISTRYRLNQ | -0.536
43 | HMAAKADAVKKAIAAIGKVDASEDSKAKVEAARKAYAALTEDQKKLVEASQLKLLTEAEAAYQQAVEESKK | -0.0736
44 | HMERGEFQKLGRATLEQTLARAGKTLAEVSLKAMLETFAFAAEEDLYEALGRGRVSAAKVGETLFPALKGR | -0.942
45 | HMDSVTLGISFNGKTRFTLDFPADAAAADIEKAALEAEQSQRYLEGMTVAKVIVVPGRIVNIVLK | -0.185
46 | HMQSYHVGDKVTIKNSASHWATGQSIYNGVKGHTYKIIQTNGHKLLLDQVISWINDGDVYKAGS | 0.0872
47 | HMKEKPLWAIRITELREEHYFTQTDVSKALGIAQTTYAGYETGRHEPDFETMIKIADIYKVSLDYLIGR | -0.288
48 | HMPNILLSVKDASVAISVSSKMVRLLIASGRLKAVNLGKRMTRISLQELTDFAQRQGGNVVLP | -0.514
49 | HMAPVVELEDVTIVRGKATLLDRVNWVIDETDRWVIVGPNGAGKTTLLQVVSANLHPTSGKAMILDEVL | -0.366
50 | HMEEPLIISIDSNGAVYLEVDSFKDQSIEMSSLREIIEKIILANPDIQVVVRGDSEVKYEKVMDLMSILQS | -1.95

Row | Sequence | soluble fraction (log2)
51 | HMIEEIETQFLFDFGLIGHPNSAKIREKLSEALGIGYVNGKQLQKRLMMFGITKQQVVDVLTD | -2.3
52 | HMRHEDLSPAQKAAALVVAVGSENAAQVLRHLSEEEVEILAGEVARLGEVDPDVVDSVMREVYEQMMGH | -0.929
53 | HMVKLSATVKELLDFVIAKKTVTSSNVSKHFDISAQNASGRLKKLHATGLVLGQKEVAESGGLEFVYRS | -0.208
54 | HMIYKLIADRLKNRINSDEFEVGDALPSEKALAGELEVSVMTIRKALTLLESEKLIVKRHGSGSYVARKSN | 0.0567
55 | HMADPRFHSEIMLSKIESLLSGKADSDVSNYSIQGRSLTKMSLQELMDARESYDGLVKSEKAKLDAKY | -0.218
56 | HMDVYKRQKLRNFIESLFEDAPKNKQTIELKEEMLQNLIDKYNDLVDSGKSSEAAYNIATAS | -0.0341
57 | HMDTVSYMSDAVKAGAVTPSHDEEARARYLLYAGFGAILLFLRYEASEPGDIESAIREFMERYGPVTAELY | 0.00707
58 | HMKRDEYIAQLKKYLKRLPKKEYDSAIEYFTEYFDEAGPERELEVIQELGQPKEAAKEMLLQLLNE | -0.506
59 | HMNSVLPQEVKSSLNDFFTKYAPGSIAQKLINHASFTGGKVVVTGVELTQTQADDLKKAFKDKFF | 0.22
60 | HMDLMSTNEKLLYTMRYLISKSLDGAITEEEIRRLDRLIIENSQARAYYVEYLQIHTHLRKLMQQNPELK | -1.15
61 | HMVKSDLVGHRFILVEDVTPKLTPKYHYSGINWKLITTDNLVAGTRVEVIQVDVGKFHIKAIK | -0.82
62 | HMEQQSIYLENRERMTINQVIDVDAFDEETLWANLKEGAVEISGSGLHIEKLDLAEGVLIVSGIIRAFAYV | -0.423
63 | HMTPPPTNSREWMEWGISHGLDANLDRSGQVVFYTDDRVVADAAELSGADLERDNMGQFVIYTGAYDKG | -0.743
64 | HMTIKLFPNPSTDFIRVSELSAKENYKIYTILGSEIKRGSVSNNETIDIRNLNSGVYLLKFDNGTTKKIVK | 0.124
65 | HMEPAPPPAAPPADPELQKRIDKLVEYIGKNGPEFEAVIRDKQHDNPDYAFVFGGEGHAYYRYLLWLLPRP | -0.287
66 | HMHLEKGEVVVPDLKGLTMRQVGELLGKLNLRYSFSGTGLAVKQFPESGQIVNQGDIIEVIF | 0.174
67 | HMDPLGGFTKGDVDMDGRVAVNDAVMVLKNAIKLMELDTQQLMLADADNDGKITVNDAVMILKKAIKLID | -0.478
68 | HMEVAPEKVLEALNELPEIYKIVLNLYAVENMSHKEIAKKLGISLGSSKSRLSRGRVMLNTLLNR | -0.866
69 | HMKYKTKRDMILALMKKEILSGELKPRTRLLISEVASRYEVSEIPVREAFQVLIQEDLVRSTGAGFEVT | 0.233
70 | HMNTFDLSKLEEIILASRDKAMKTKEFTELDNLKNLFITAGLDVQMSKNGIKLIKGPKFNSSLLEDF | -0.741
71 | HMVDWTFPVLVKDVVMMGRYGHMGFLRIPGKKDFESVDNALAKVGMVEYAKQQIGELSGGQR | -0.0255
72 | HMKEHDTLALRLTAILRKLNDGEKLVPRELAEEFNVGIRTIQRDLTERLSFLDLEKTNGAYSLPTRNL | -0.36
73 | HMIDNKIIRSLRQKRNMTLEELAKKANISVSYLSEIELGKKQPSLETINKLSQALNISREGLI | 0.22
74 | HMQNSLKAFRVKRGLTTSALSRLTNGEFSTSRISNYETGVRALTIDAAKKLAPHLGASPAQLLNL | 0.371
75 | HMSTVELPVQINGKVRGRITVPANAGQEDVKQAALADSKVQRYIEGASIRKVIVVPRKLVNIVV | ≥ 0.43
